Measurements as given in patent publication US20180186897A1 (INSTITUTE FOR RESEARCH IN BIOMEDICINE, published 2018).

T1: RIFIN PF3D7_1400600 (Plasmodium falciparum)
T1 construct: also called specific RIFIN
T1 chain: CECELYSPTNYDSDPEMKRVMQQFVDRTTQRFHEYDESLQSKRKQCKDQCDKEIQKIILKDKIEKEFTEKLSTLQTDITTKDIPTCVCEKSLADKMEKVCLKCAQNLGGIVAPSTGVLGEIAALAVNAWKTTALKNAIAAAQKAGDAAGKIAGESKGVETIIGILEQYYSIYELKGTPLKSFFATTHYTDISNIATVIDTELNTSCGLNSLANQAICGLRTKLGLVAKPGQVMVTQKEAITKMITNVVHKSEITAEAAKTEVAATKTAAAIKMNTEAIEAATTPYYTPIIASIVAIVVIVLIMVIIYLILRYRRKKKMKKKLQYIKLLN


How the values were obtained:
RIFIN PF3D7_1400600 = target: T1, RIFIN PF3D7_1400600; assay: immunoprecipitation with MGD21, LC-MS
[1] = target: erythrocytes infected with P. falciparum field isolate 11019; assay: flow cytometry, staining of IEs
[2] = target: erythrocytes infected with P. falciparum field isolate 9775; assay: flow cytometry, staining of IEs
[3] = target: erythrocytes infected with P. falciparum field isolate 9106; assay: flow cytometry, staining of IEs
[4] = target: erythrocytes infected with P. falciparum field isolate 9215; assay: flow cytometry, staining of IEs
[5] = target: erythrocytes infected with P. falciparum field isolate 11014; assay: flow cytometry, staining of IEs
[6] = target: erythrocytes infected with P. falciparum field isolate 9605; assay: flow cytometry, staining of IEs
[7] = target: erythrocytes infected with P. falciparum field isolate 10975; assay: flow cytometry, staining of IEs
[8] = target: erythrocytes infected with P. falciparum field isolate 10936; assay: flow cytometry, staining of IEs

Binder	log2 fold change (enrichment in MGD21 immunoprecipitates of 3D7-MGD21+ against 3D7-MGD21- IEs) (RIFIN PF3D7_1400600) [log2 fold change]	% parasite recognition [1] [%]	% parasite recognition [2] [%]	% parasite recognition [3] [%]	% parasite recognition [4] [%]	% parasite recognition [5] [%]	% parasite recognition [6] [%]	% parasite recognition [7] [%]	% parasite recognition [8] [%]
MGD21 (antibody, IgG1, Human mAb of donor D with LAIR-1 exon+intron insert in CDRH3; also called MGD21 ANTIBODY; mAb MGD21) VH: EVQLVETGPGLMKTSGTLSLTCAVSGDYVNTNRRWSWVRQAPGKGLEWIGEVHQSGRTNYNPSLKSRVTISVDKSKNQFSLKVDSVTAADTAVYYCARASPLKSQRDTDLPRPSISAEPGTVIPLGSHVTFVCRGPVGVQTFRLERERNYLYSDTEDVSQTSPSESEARFRIDSVNAGNAGLFRCIYYKSRKWSEQSDYLELVVKGEDVTWALSQSQDDPRACPQGELPISTDIYYVDVWGNGTTVTVSS VL: AIRMTQSPSSLSASPGDKVSITCRASQHINDSLAWFQQRPGKAPKLLIYGASNLHSGVPSRFSGTGSGTDFTLTITGLQSEDFATYFCQQCNCFPPDFGQGTRLEIK	> 2	–	–	–	–	–	–	–	–
MGC17 (antibody) VH: EVQLVESGGGLVQPGGSLKLSCVASGFNFRKSWMSWVRQAPGKGLEWVANIREDGSKAYYVDSVKGRFTVSRDNAKNSLYLQINSLRADDTAVYYCARDRFCSDDEDHSHGAEDLPRPSISAEEGTVIPLGSRLTFVCRGPVGVHTFRLERDRRSTYNDTEDVSHPSPSESEARFRIDSVSEGNAGLYRCVYYKSPEWSKQSDYLELLVKGQEVTWALFTSCGGDGEVPDYDMDVRGKGTTVTVSS VL: DIVMTQSPDSLAVSLGERATINCKSSQSVLYRSKNKKYLAWFQQRPGQPPKVLIYWTSTRASGVPDRFSGSGSGTDFTLTISSLQADDVAVYYCQQYFIFPYTFGQGTKLEIR	–	7.1	2.5	1.3	16.7	1.6	6.8	1.5	2.4
MGC32 (antibody) VH: EVQLVESGGGLVQPGGSLRLSCVASGFNFRKSWMGWVRQAPGKGLEWVANIREDGSESFYADSVKGRFTVSRDNAKKSLYLHINSLRAEDTAVYYCARDRFCNDDEIHRHGQEDLPRPSISAAEGTVIPLGSHVTFVCRGPVGVQTFRLEKDSRSIYNDTENVSQPSPSESEARFRIDSVSEGNAGLYRCVYYKAPKWSAQSDYLELLVKGQEVTWALFTSCGGDGEEPDYDMDVRGKGTTVTVSS VL: DILMTQSPDSLAVSLGERATINCKSSQSVLYRSKNKNYLAWFQQKPGQPPKVLIYSTSTRASGVPDRFTGSGSGTDFTLTISSLQAEDVAVYYCLQYYITPYTFGQGTKLEIK	–	38.1	7.9	7.8	13.1	4.5	22.9	3.2	2.9
MGC34 (antibody) VH: EVQLVESGGGLVQPGGSLRLSCEASGFTFSSYWMSWVRQAPGKGLEWVANINQDGSQKDYVDSVKGRFTISRDTAKNSLYLQMNSLRAEDTAVYYCARERLCTDDSHMHGEEDLPRPSISAEPGTVIPLGSHVTFVCRGPVGIHTFRLERESRSLYTETEDVTQVSPSESEARFRIESVTEGNAGLYRCVYYKPPKWSEQSDYLELLVKGEDVTRALFTHCGGDGKESDYHMDVWGKGTTVTVSS VL: QTVVTQEPSLTVSPGGTVTLTCASSTGAVTSGYYPSWFHQKPGQPVRALIYSTSKTHSWTPARFSGSLLGGKAALTLSNVQPEDEADYYCLLYYGGPQPWVFGGGTKLTVQ	–	34.1	17.5	6.8	27.1	11.4	23.7	15.2	11.3
MGC26 (antibody) VH: EVQLVDSGGGLVQPGGSLRLSCAASGFTFSTYWMTWVRQTPGKGLEWVASIKQDGTERYYVDSVKGRFIISRDNAKNSLYLQMHSLRAEDTAVYYCVRDRFCRDHMHIEEDLPRPSISPEPATVIPLGSHVTIVCRGPVGVETFRLQKESRSLYNDTEDVSQPSPSESEARFRIDSVSEGHGGLYRCLYYKSSKWSEQSDYLEMLVKGEDVTWALFPYCGGDGEESDYYMDVWGKGTTVTVSS VL: DIQLTQSPSTLSASVGDRVTISCRASQRLSRSLAWYQQRPRKAPNLLIYKASPLEIGGPSRFTGSGSGTEFTLTISSLQPDDSATYYCQQYSNYSYSFGQGTKLEIR	–	50.8	3.4	8.5	9.5	5.4	21.1	7.3	3.6
MGC28 (antibody) VH: EVQLVESGGGLVQPGGSLRLSCEASGFTFSSYWMTWVRQAPGKGLEWVANINQDGSERYYVDSVKGRFTISRDTVKNSLYLQMNNLRAEDTAVYYCARQRFCSDGSLFHGEDLPRPTISAETGTVISLGSHVTFVCRGPLGVQTFRLERESRSRYSETEDVSQVGPSESEARFRIDSVSEGNAGLYRCIYYKPPKWSEQSDYLELRVKGEDVTWALLTYCGGDRDESDYYMDVWGKGTTVTVSS VL: QTVVTQEPSLTVSPGGTVTLTCASSTGSVTSGSFPNWFQQTPGQAPRSLIYSTTKKHSWTPARFSGSLLGGKAALTVSDTQPEDEAEYYCLLYCGGGQPWVFGGGTKLTVL	–	30	9.8	7.5	10.8	2.8	20.9	12.3	3
MGC33 (antibody) VH: EVHLVESGGGLVQPGGSLRLSCEASGFTFSSYWMTWVRQAPGKGLEWVANINQDGSERYYVDSVKGRFTISRDTVKNSLYLQMNNLRAEDTAVYYCARQRFCSDGSLFHGEDLPRPTISAETGTVISLGSHVTFVCRGPLGVQTFRLERESRSRYSETEDVSQVGPSESEARFRIDSVSEGNAGLYRCIYYKPPKWSEQSDYLELRVKGEDVTWALLTYCGGDRDESDYYMDVWGKGTTVTVSS VL: QTVVTQEPSLTVSPGGTVTLTCASSTGSVTSGSFPNWFQQTPGQAPRSLIYSTTKKHSWTPARFSGSLLGGKAALTVSDTQPEDEAEYYCLLYCGGGQPWVFGGGTKLTVQ	–	23.5	9.7	7.5	11.5	2.9	22.3	11.5	3.6
